How the values were obtained:
FHR-B_(Y162H) (mouse) = assay: AUC; sedimentation velocity, 48000 rpm, protein in PBS pH 7; c(s) distributions with SEDFIT; dimer to monomers
[1] = target: recombinant form of the native mouse FHR-B protein (rFHR-B) (mouse); assay: AUC; sedimentation velocity after exposure to pH 2.5 or pH 10.5 and dialysis back to physiological conditions
[2] = target: recombinant form of the native mouse FHR-B protein (rFHR-B) (mouse); assay: AUC; sedimentation velocity, 48000 rpm, protein in PBS pH 7; c(s) distributions with SEDFIT; dimer to monomers
[3] = target: FHR-B1-3::FHR-1_(4-5) hybrid protein (mouse | human); assay: as above
[4] = target: FHR-1_(1-3)::FHR-B4-5 hybrid protein (human | mouse); assay: as above
[5] = target: FHR-B_(T161A,I166V) (mouse); assay: as above
FHR-B_(Del.1) (mouse) = assay: as above
FHR-B_(Dup.1-3) (mouse) = assay: as above

Substance: FHR-B_(Y162H) (natural protein)
- stoichiometry N (FHR-B_(Y162H) (mouse)): 2

Substance: recombinant form of the native mouse FHR-B protein (rFHR-B) (natural protein)
- stoichiometry N [1]: 2
- stoichiometry N [2]: 2

Substance: FHR-B1-3::FHR-1_(4-5) hybrid protein
- stoichiometry N [3]: 2

Substance: FHR-1_(1-3)::FHR-B4-5 hybrid protein
- stoichiometry N [4]: 2

Substance: FHR-B_(T161A,I166V) (natural protein)
- stoichiometry N [5]: 2

Substance: FHR-B_(Del.1) (domain or fragment)
- stoichiometry N (FHR-B_(Del.1) (mouse)): 2

Substance: FHR-B_(Dup.1-3)
- stoichiometry N (FHR-B_(Dup.1-3) (mouse)): 2

— paper PMC11813886
